The results in this text go back to patent publication CN117396506A (NOVARTIS AG, dated 2024).

For one assay, the target named is T1, 重组人IL-1β (human, UniProt P01584 117-269).
T1 construct: In the LPS/IL-12 assays the IL-1β is the native cytokine made by the blood cells; also called huIL-1β; IL-1b
Kind of assay: solution equilibrium titration (SET), single-target binding assay, MSD ECL read-out; mean KD.

A further assay deals with T2, 重组人IL-18 (human, UniProt Q14116 37-193).
T2 construct: In the LPS/IL-12 assays the IL-18 is the native cytokine made by the blood cells; also called huIL-18; human IL-18
Kind of assay: SET, single-target binding assay.

B1: mAb2 (antibody, human IgG1, kappa, V domains shown)
VH: QVQLVESGGGVVQPGRSLRLSCAASGFTFSVYGMNWVRQAPGKGLEWVAIIWYDGDNQYYADSVKGRFTISRDNSKNTLYLQMNGLRAEDTAVYYCARDLRTGPFDYWGQGTLVTVSS
VL: EIVLTQSPDFQSVTPKEKVTITCRASQSIGSSLHWYQQKPDQSPKLLIKYASQSFSGVPSRFSGSGSGTDFTLTINSLEAEDAAAYYCHQSSSLPFTFGPGTKVDIKR
notes: Human anti-IL-1β antibody, bivalent mAb; also called IL-1β抗体mAb2
Take B1: the Kd with 重组人IL-1β came to 0.6 pM.

B2: mAb1 (antibody, human IgG1, lambda, L234A L235A, V domains shown)
VH: EVQLVQSGAEVKKPGSSVKVSCKASGGTFKSYAISWVRQAPGQGLEWMGNIIPMTGQTYYAQKFQGRVTITADESTSTAYMELSSLRSEDTAVYYCARAAYHPLVFDNWGQGTLVTVSS
VL: DIVLTQPPSVSGAPGQRVTISCSGSSSNIGNHYVNWYQQLPGTAPKLLIYRNNHRPSGVPDRFSGSKSGTSASLAITGLQSEDEADYYCQSWDYSGFSTVFGGGTKLTVLG
notes: Human anti-IL-18 antibody, bivalent mAb; also called IL-18抗体mAb1
In the case of B2, in the assay with 重组人IL-18, the binding result is “binds”.

Broadly, the Kd is the free concentration of one partner at which half of the binding sites on the other are occupied at equilibrium, for simple one-to-one binding.
